Measurements from US20020164767.

System: PFEK-protease C-E-6XHIS zymogen
Sequence (chain, as listed by the source): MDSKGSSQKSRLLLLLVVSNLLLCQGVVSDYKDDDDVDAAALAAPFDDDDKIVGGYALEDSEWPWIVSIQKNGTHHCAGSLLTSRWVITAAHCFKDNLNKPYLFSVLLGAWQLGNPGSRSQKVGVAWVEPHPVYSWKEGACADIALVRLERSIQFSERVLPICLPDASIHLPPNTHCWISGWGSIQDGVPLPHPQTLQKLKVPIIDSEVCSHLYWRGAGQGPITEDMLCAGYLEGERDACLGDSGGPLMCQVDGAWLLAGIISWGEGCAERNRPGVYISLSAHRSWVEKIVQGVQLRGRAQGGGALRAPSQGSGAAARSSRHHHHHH

enterokinase
cleavage of the zymogen (SDS-PAGE and anti-FLAG Western blot): This demonstrates the quantitative cleavage of the expressed and purified zymogen to generate the processed and activated protease
